In patent publication US20240398963A1 (priority 2021, published 2024):

Assay type: physicochemical
Conditions: 10 mM PBS buffer (pH=7.4), 37° C., 100 rpm shaker; free drug by HPLC, average release per day
Description: The drug release and stability experiments were run using the test compounds. About 2.5±1.0 mg/mL (with regard to conjugate) solution of each test compound was prepared with 10 mM PBS buffer (pH=7.4) in Millipore Amicon® Ultra-0.5 ml 30 k Ultrafiltration centrifuge tube. The solution was kept swelling for 1 h at room temperature and then placed in a shaker at 100 rpm, 37° C. for continuous experiment. At the same time point of each day, samples were centrifuged at 10000 rpm for 1 h. The aliquot was transferred to HPLC vial for analysis. An 0.4 mL of 10 mM PBS buffer was added into the centrifuge tube and continue the experiment.
For the HPLC analysis at each time point, the peak areas of all relevant peaks from the chromatograms were retrieved and the concentration of free drug was calculated. Average release of free drug was calculated based on the sum of free drug and numbers of experiment days. The computing equation is as below.
The sample degradation rate was calculated based on the concentration and degree of substitution (NMR) for conjugated drug with regard to the initial starting point of the experiment (at t=0). The computing equation is as below.

Row | Substance | Release rate [%/day]
1 | Conjugate of CS and 2-((8S,9S,10R,13S,14S,17R)-17-hydroxy-10,13-dimethyl-3,11-dioxo-2,3,6,7,8,9,10,11,12,13,14,15,16,17-tetradecahydro-1H-cyclopenta[a]phenanthren-17-yl)-2-oxoethyl 4-aminobutanoate [Example 41] | 1.79
2 | Conjugate of CS and 4-aminobutyl (2-((6S,8S,9S,10R,11S,13S,14S,17R)-11,17-dihydroxy-6,10,13-trimethyl-3-oxo-6,7,8,9,10,11,12,13,14,15,16,17-dodecahydro-3H-cyclopenta[a]phenanthren-17-yl)-2-oxoethyl) carbonate [Example 69] | 4.62
3 | Conjugate of HA and 2-((6αS,6βR,7S,8αS,8βS,11αR,12αS,12βS)-6β-fluoro-7-hydroxy-6α,8α,10,10-tetramethyl-4-oxo-1,2,4,6α,6β,7,8,8α,11α,12,12α,12β-dodecahydro-8βH-naphtho[2′,1′:4,5]indeno[1,2-d][1,3]dioxol-8β-yl)-2-oxoethyl glycylglycylglycinate [Example 19] | 17.57
4 | Conjugate of HA and 4-aminobutyl (2-((8S,9S,10R,13S,14S,17R)-17-hydroxy-10,13-dimethyl-3,11-dioxo-6,7,8,9,10,11,12,13,14,15,16,17-dodecahydro-3H-cyclopenta[a]phenanthren-17-yl)-2-oxoethyl) carbonate [Example 60] | 15.04
